# The RNAGym collection of RNA variant scans (doi:10.1073/pnas.2313332121)
# Fewer inactive variants are shown than the library holds.
# B1: TPR 5TU (parent)
# chain: GGAUCUUCUCGAUCUAACAAAAAAGACAAAUCUGCCACAAAGCUUGAGAGCAUCUUCGGAUGCAGAGGCGGCAGCCUUCGGUGGCGCGAUAGCGCCAACGUUCUCAACUAUGACACGCAAAACGCGUGCUCCGUUGAAUGGAGUUUAUCAUG
# Variants of: B1
# Assay: polymerase ribozyme fitness, log enrichment relative to wild type (log ratio); higher = more active; in vitro selection for triplet polymerase activity
# In short: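 Streptavidin-bead capture of gel-excised extended constructs, followed by RT-PCR, closed a single triplicate in vitro selection round. That round began by annealing PCR-built, transcribed mutant libraries of each subunit of a heterodimeric triplet polymerase ribozyme with a biotinylated primer, the partner subunit and triplets, then incubating them frozen at −7 °C. After Illumina sequencing of inputs and outputs, genotypes needed ≥10 input reads and ≥1 read per output. Fitness is the base-2 logarithm of genotype enrichment over wild-type enrichment, using inverse-variance-weighted replicate averages.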
row,Variant,polymerase ribozyme fitness (log ratio)
1,C14G U33C C87A A91C,≤ -4.2
2,C14G A60G,-2.34
3,U13G U15A C36A A40C U56A G58A A107U G124U C131A,≤ -4.2
4,U13A A41G C85A A106U,-4.16
5,A12G C54G G80A U144A,-3.53
6,C14G U45A C79U G88A U104G A113U,-4.17
7,C14G G50U C87A G112C C123U U148G,≤ -4.2
8,U13G G58C A122C,-1.1
9,U13G A16U G42C G84A,≤ -4.2
10,C14G A17C A23C A40C G88A G94U C123G U134G G140A,≤ -4.2
11,C14G U53A,-2.66
12,A12U C105G C118A,-2.62
13,C14G G48U C76U U77G A91C C99G C105G A122G C123G C129G U135G,≤ -4.2
14,A12G A39C,-1.68
15,A12G A39G,-1.53
16,U13C G25A A29C C36G C118A,-4.18
17,A12U G59C A89U A91U U101C U144C,≤ -4.2
18,U13A A47G U82G C95G,-3.73
19,A12U U13A A91G C93A U102A,≤ -4.2
20,A12G C36U A37C G59C U102A C118G A120C U146A,≤ -4.2
21,A12U G84U G141C,-2.48
22,U13G C14U A60C G88U A122U U134A,≤ -4.2
23,A12U A20C C36G A138C,-4.13
24,A12U A17C A24G C79U C118U,≤ -4.2

row,Variant,polymerase ribozyme fitness (log ratio)
1,U13G C14G A30C G80A A137U,≤ -4.2
2,A12U A22G U45A A49U A115G,≤ -4.2
3,U13A C93U,-0.77
4,U13A G42C G48C C85A C99G A106G G133U G141C,≤ -4.2
5,U13G C14A C72U G83A G117U,-2.88
6,A12U A29G A37U A47U U55A G84U A89G A120C G140C U144G,≤ -4.2
7,C14A C72U G81U C95U,-2.42
8,C14G C57G C87G,≤ -4.2
9,C14A A39U A52U C87A C95U C96U G100U C125A,≤ -4.2
10,U13G A106C,-1.83
11,A12U C76G C99U C132G,≤ -4.2
12,A12U A39U U55A G67U G86U C103U,≤ -4.2
13,U13A A21U U55C G62C U82A G100C C105G G112U C131U,≤ -4.2
14,U13A C54A G84U G88U,≤ -4.2
15,C14A A41C C51U A64U C76A A89G C95A G128A A150U,≤ -4.2
16,U13A A20G C63G A91U G136C,≤ -4.2
17,A12G C95U C105G A106U,-4.1
18,C14A A20U A47U C76U C85A C95U A115U C131G,≤ -4.2
19,C14A A49C C69A,≤ -4.2
20,U13A A37G C93U,-3.74
21,C14A A19U U33G C69A C75G C96A A97G A106C G140C,≤ -4.2
22,C14G A19U C116A,-2.21
23,A12G A19G A41C C95U G126A,-1.94
24,A12G A19C A29U C129G,≤ -4.2

row,Variant,polymerase ribozyme fitness (log ratio)
1,C14G A26U A28G C35A U56C C57U U90G,≤ -4.2
2,C14G C54U G68C C87U,≤ -4.2
3,C14A C27G A28G C43U G81A G84U U109G G143A,≤ -4.2
4,C14A A40U C87A G136C,≤ -4.2
5,U13G C54U G84U,-2.19
6,C14A C18G A41C G42A G59C G68A C95U,≤ -4.2
7,A12G U13C C14A A41C A110U A119G G133A G140U U145G,≤ -4.2
8,A12G C57A G58A G81A C85U A91G A119G,-3.03
9,U13A C18U C51U G86A,-2.27
10,C14A A16U G86A C87G,-3.84
11,A12U C32A A41C C103U,≤ -4.2
12,C14G A23U A52C G84A C118U,≤ -4.2
13,C14G C32G C76A U139A,≤ -4.2
14,C14G C54A C57A G62A U78A C85U G88A A115U,≤ -4.2
15,U13C A21U A52C U55G G67U G80A C105U A150C,≤ -4.2
16,U13G C18G A22G C54A G100C C116G A120U A147C,≤ -4.2
17,C14G C35A G74U G86A A120U,≤ -4.2
18,C14G G50A,-3.35
19,C14G A26G C27A U44A U45C C72A U151G,≤ -4.2
20,A12U G34U G50A A52G G67C C85U C96U G141A U148G,≤ -4.2
21,U13A A24U G34A G94C G126C,-3.18
22,A12G C27G U55A A110G G143A U145G U148G,≤ -4.2
23,C14G A89U,-2.66
24,A12G U44A A52G C85A C118U,≤ -4.2

row,Variant,polymerase ribozyme fitness (log ratio)
1,A12U C93G,-3.28
2,A12G C85A C118A,-0.759
3,C14G C85A,-3.74
4,U13G A20C C27U U61A C99A,≤ -4.2
5,U13G A19U A22C G46C G81C C95U G140C,≤ -4.2
6,C14G G86U,-3.77
7,C14A A28G A122U U134G U144G,≤ -4.2
8,A12U G126A,-0.204
9,A12U U13G A52U C54A,≤ -4.2
10,C14G C96G,-2.81
11,A12G C72G G74U G83U U146G,≤ -4.2
12,C14G C36U C85U G136U A138G,≤ -4.2
13,A12U C38U C129G,≤ -4.2
14,A12G U44G A60G G65C C114G,≤ -4.2
15,C14A U55G U56A G92U A150G,-4.11
16,C14G A22G G94A C118G A150C,≤ -4.2
17,A12G U55A G84A G117U,-0.697
18,C14G A22U A39U,≤ -4.2
19,A12G A40G A41C G65A C85U A107G C123G G152A,≤ -4.2
20,A12G A52C U55A C118G A120U,-1.84
21,U13A C85U G136U,-3.3
22,A12G A17C G50C C63G C96U,-0.474
23,C14G A24G A26G A39C A66C C105U A107U,≤ -4.2
24,C14A A21G U53A C85U,-3.58

row,Variant,polymerase ribozyme fitness (log ratio)
1,A12G A20U C103A C116A A121U C129A,≤ -4.2
2,C14A C54U C118U G136U,-4.12
3,A12G A21C C32U U55G,-1.77
4,A12U G117C U134C,-0.516
5,C14G C69A C96U C118U,≤ -4.2
6,A12U U53A,-1.75
7,C14G U15C C85U A121C G126A,-0.0533
8,U13G G84A,-0.636
9,C14G G34A C85A,≤ -4.2
10,U13G C51U U56A G86U A115U,≤ -4.2
11,U13G C32G A41C G141U,≤ -4.2
12,C14A A22G G86U G140C,≤ -4.2
13,U13C C18G C35G A40G C63A A91U C118U C132U A150U,≤ -4.2
14,U13A C72U U82C,-1.38
15,A12G A20U A41C C57A A66U C69G A91U C129U,≤ -4.2
16,U13G A49U C57U C87G C118U U139C U151A,≤ -4.2
17,U13G A66C G80U G83C U101C U139C,≤ -4.2
18,C14A A29U C51A C96G A115C C118A G141A,≤ -4.2
19,A12U C27G A41G C87U A91G G140U,≤ -4.2
20,U13G C93A G141U,-4.01
21,C14G A52C C69U U77G G92A,≤ -4.2
22,A12U C96A,-0.787
23,C14G U15G A30U A91G,≤ -4.2
24,U13A A24G C27U A39C G50A G84U,≤ -4.2

row,Variant,polymerase ribozyme fitness (log ratio)
1,U13A G58U C96A A120U U145C,-1.29
2,A12U C14G G25C C85G G94A U104C A106U C116G U139C,≤ -4.2
3,A12U A47U C95U A115G,-2.31
4,C14G C54A C85G U127A,≤ -4.2
5,A12U G58C C76U U102G A138C,≤ -4.2
6,U13A C85U,-1.16
7,C14G C75G U77A C87A A137U G143U,≤ -4.2
8,C14A C72U,-1.72
9,C14A A26G G67A A73U G86C A121U C123G A138C U146A,≤ -4.2
10,C14A C43A C51U C54G C93A U145C A150C,≤ -4.2
11,C14A A17C U31A C57U C96G,-3.28
12,C14G C54U A64G A66C U82G A97G G140U,≤ -4.2
13,U13C A20U G48C C96G,-2.62
14,U13C U56A C72U C93A C96U,-3.76
15,A12U A19C U82C C129G,-3.41
16,A12U A21C G80C G81A C93G G140U,≤ -4.2
17,A12U C57U C85G A115C G133U U139C,≤ -4.2
18,U13C A16U U33A C54G G67C G133U U144A,≤ -4.2
19,U13G U56A A91G,-3.81
20,U13A U61A,-1.8
21,U13G A23U A26C C36A C57A G86U C95U A121C,≤ -4.2
22,A12G G84C,-1.21
23,A12U A21G C95U C99A G126A C132U,-3.58
24,C14G U53A G84C G92U C95A A107G A119U,≤ -4.2

row,Variant,polymerase ribozyme fitness (log ratio)
1,C14A G59C C85A C99U G141U U146G,≤ -4.2
2,A12G C54U C57A C75U,-0.0208
3,C14G A52C C85A,≤ -4.2
4,U13C G88U,-3.96
5,A12G U56A,-0.197
6,U13C A22G U61A G83A,-3.83
7,C14G C54G G71A C99A G100A,≤ -4.2
8,A12G U15G A26G C93A A115G,≤ -4.2
9,U13C G59U C93G A138G,≤ -4.2
10,A12G C54A U55G G58C G92A A97U C125G G128U U135C A138G U139A U145G,≤ -4.2
11,A12G U33A A64C G92A G124U,-4
12,A12U G46U G71U A142G,≤ -4.2
13,A12U C18A C51A U55G C87U G94A G143U,≤ -4.2
14,C14G A19G C43U G86A U104G C108G A122C,≤ -4.2
15,U13G A23U C35A C93U C99U U127G,≤ -4.2
16,C14G A23U G46U A66G G70A A91G C116G C131G,≤ -4.2
17,C14A A41C C85A C132U U145A,≤ -4.2
18,C14G G80U G84U C132A,≤ -4.2
19,C14G C87G,≤ -4.2
20,C14G C87U,-2.29
21,U13G A17U G88A C96G,≤ -4.2
22,A12U G25U A52C U56A G67A A91G C103G,≤ -4.2
23,C14G U31G G86C U102G,≤ -4.2
